System: Escherichia coli TOP10
Experiment: shrunken log2 fold change of peptide-encoding DNA abundance (4.5 h post-induction vs induction); higher = less antimicrobial activity (less host growth inhibition)
Conditions: time post-induction: 4.5 h; library: site-saturation at positions 5, 18, 19, 20
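Further: peptides expressed intracellularly from a pBAD plasmid library in pooled LB shake-flask culture, induced with 0.3% L-arabinose, DNA abundance read by NGS, three biological replicates, DESeq2 with apeglm shrinkage.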

Sequence	shrunken log2 fold change
RRIRTRPPRLPRPRPRPSQAPRP	0.0983
RRIRGRPPRLPRPRPRPFDGPRP	0.366
RRIRPRPPRLPRPRPRPITSPRP	-0.354
RRIRQRPPRLPRPRPRPKKGPRP	0.124
RRIRCRPPRLPRPRPRPIHRPRP	-0.0331
RRIRGRPPRLPRPRPRPLPLPRP	0.627
RRIRSRPPRLPRPRPRPDTPPRP	-0.0107
RRIRDRPPRLPRPRPRPKTWPRP	0.434
RRIRNRPPRLPRPRPRPVRRPRP	0.112
RRIRNRPPRLPRPRPRPYELPRP	-0.0122
RRIRFRPPRLPRPRPRPRDRPRP	0.387
RRIRCRPPRLPRPRPRPFPTPRP	-0.249
RRIRARPPRLPRPRPRPFGYPRP	0.167
RRIRPRPPRLPRPRPRPEPDPRP	0.537
RRIRVRPPRLPRPRPRPRKRPRP	0.572
RRIRFRPPRLPRPRPRPQSNPRP	-0.354
RRIRNRPPRLPRPRPRPWQIPRP	-0.102
RRIRLRPPRLPRPRPRPCLLPRP	-0.421
RRIRVRPPRLPRPRPRPRDIPRP	-0.0591
RRIRIRPPRLPRPRPRPRWCPRP	-0.11

Sequence	shrunken log2 fold change
RRIRCRPPRLPRPRPRPRWIPRP	0.0454
RRIRYRPPRLPRPRPRPPGMPRP	0.0171
RRIRDRPPRLPRPRPRPQEFPRP	-0.0529
RRIRARPPRLPRPRPRPDEEPRP	0.901
RRIRYRPPRLPRPRPRPSFTPRP	-0.91
RRIRVRPPRLPRPRPRPFDIPRP	0.145
RRIRDRPPRLPRPRPRPRHAPRP	0.324
RRIRTRPPRLPRPRPRPNHDPRP	-0.3
RRIRCRPPRLPRPRPRPQSMPRP	-0.419
RRIRKRPPRLPRPRPRPWHYPRP	0.0725
RRIRHRPPRLPRPRPRPAALPRP	-0.0796
RRIRLRPPRLPRPRPRPKCAPRP	0.0163
RRIRGRPPRLPRPRPRPYYAPRP	-0.242
RRIRPRPPRLPRPRPRPEMHPRP	0.395
RRIRVRPPRLPRPRPRPWTFPRP	-0.0163
RRIRVRPPRLPRPRPRPALTPRP	0.117
RRIRKRPPRLPRPRPRPDECPRP	-0.0821
RRIRERPPRLPRPRPRPINNPRP	-0.944
RRIRERPPRLPRPRPRPPNWPRP	0.368
RRIRNRPPRLPRPRPRPGLDPRP	0.00266

Sequence	shrunken log2 fold change
RRIRTRPPRLPRPRPRPGTYPRP	0.0862
RRIRLRPPRLPRPRPRPWSEPRP	0.0878
RRIRPRPPRLPRPRPRPRVYPRP	-0.311
RRIRHRPPRLPRPRPRPFGTPRP	-0.213
RRIRARPPRLPRPRPRPRYLPRP	-0.351
RRIRARPPRLPRPRPRPDGMPRP	-0.141
RRIRRRPPRLPRPRPRPTISPRP	-0.28
RRIRGRPPRLPRPRPRPVSEPRP	0.797
RRIRNRPPRLPRPRPRPTHYPRP	-0.109
RRIRARPPRLPRPRPRPNMYPRP	-0.38
RRIRCRPPRLPRPRPRPTLHPRP	-0.0488
RRIRSRPPRLPRPRPRPCFEPRP	-0.0192
RRIRYRPPRLPRPRPRPVSFPRP	-0.717
RRIRNRPPRLPRPRPRPQYHPRP	-0.767
RRIRCRPPRLPRPRPRPTVCPRP	-0.0924
RRIRSRPPRLPRPRPRPMRCPRP	0.361
RRIRVRPPRLPRPRPRPKCPPRP	0.0181
RRIRERPPRLPRPRPRPCFLPRP	-0.647
RRIRRRPPRLPRPRPRPHSGPRP	0.0307
RRIRNRPPRLPRPRPRPMWIPRP	-0.148

Reference: the supplement of paper PMC9112550, “Optimization of the antimicrobial peptide Bac7 by deep mutational scanning” (BMC Biology, 2022)
